Measurements: patent US10087225B2, “Formulation of MK2 inhibitor peptides” (MOERAE MATRIX, INC., priority 2015, dated 2018)

Legend:
Test in all cases: Kinase Profiling Assay
Assay type in all cases: biochemical
Details in all cases: for % activity: 100 μM
EphB1(h) = molecular target: T1, EphB1(h) (Homo sapiens, UniProt P54762)
T1 sequence (P54762 18-984): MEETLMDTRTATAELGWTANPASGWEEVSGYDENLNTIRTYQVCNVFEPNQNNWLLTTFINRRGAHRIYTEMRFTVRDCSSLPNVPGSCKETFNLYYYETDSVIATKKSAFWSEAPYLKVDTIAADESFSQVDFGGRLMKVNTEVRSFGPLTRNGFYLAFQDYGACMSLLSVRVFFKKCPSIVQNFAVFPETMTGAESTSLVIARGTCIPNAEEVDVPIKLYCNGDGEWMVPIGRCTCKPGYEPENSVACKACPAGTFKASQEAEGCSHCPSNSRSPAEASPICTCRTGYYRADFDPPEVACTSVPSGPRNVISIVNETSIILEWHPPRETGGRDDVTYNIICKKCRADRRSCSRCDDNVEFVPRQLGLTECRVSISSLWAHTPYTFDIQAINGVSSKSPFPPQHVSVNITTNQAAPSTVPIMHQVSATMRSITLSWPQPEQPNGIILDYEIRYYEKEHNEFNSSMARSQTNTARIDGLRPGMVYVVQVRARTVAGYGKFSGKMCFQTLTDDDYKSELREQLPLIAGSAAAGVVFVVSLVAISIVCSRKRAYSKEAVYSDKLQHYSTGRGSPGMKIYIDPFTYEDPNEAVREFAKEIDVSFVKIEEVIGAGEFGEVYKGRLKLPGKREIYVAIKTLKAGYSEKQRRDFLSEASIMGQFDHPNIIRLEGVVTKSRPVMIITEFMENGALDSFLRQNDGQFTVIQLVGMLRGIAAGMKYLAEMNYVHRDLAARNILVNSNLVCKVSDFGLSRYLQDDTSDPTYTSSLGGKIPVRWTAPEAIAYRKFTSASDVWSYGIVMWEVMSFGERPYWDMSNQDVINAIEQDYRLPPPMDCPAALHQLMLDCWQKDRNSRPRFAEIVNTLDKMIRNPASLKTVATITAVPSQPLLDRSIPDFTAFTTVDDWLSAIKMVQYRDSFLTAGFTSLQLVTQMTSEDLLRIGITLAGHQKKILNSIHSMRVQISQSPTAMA

MLK1(h) = MLK1(h) (Homo sapiens, UniProt P80192)
Sequence of MLK1(h) (P80192 whole entry): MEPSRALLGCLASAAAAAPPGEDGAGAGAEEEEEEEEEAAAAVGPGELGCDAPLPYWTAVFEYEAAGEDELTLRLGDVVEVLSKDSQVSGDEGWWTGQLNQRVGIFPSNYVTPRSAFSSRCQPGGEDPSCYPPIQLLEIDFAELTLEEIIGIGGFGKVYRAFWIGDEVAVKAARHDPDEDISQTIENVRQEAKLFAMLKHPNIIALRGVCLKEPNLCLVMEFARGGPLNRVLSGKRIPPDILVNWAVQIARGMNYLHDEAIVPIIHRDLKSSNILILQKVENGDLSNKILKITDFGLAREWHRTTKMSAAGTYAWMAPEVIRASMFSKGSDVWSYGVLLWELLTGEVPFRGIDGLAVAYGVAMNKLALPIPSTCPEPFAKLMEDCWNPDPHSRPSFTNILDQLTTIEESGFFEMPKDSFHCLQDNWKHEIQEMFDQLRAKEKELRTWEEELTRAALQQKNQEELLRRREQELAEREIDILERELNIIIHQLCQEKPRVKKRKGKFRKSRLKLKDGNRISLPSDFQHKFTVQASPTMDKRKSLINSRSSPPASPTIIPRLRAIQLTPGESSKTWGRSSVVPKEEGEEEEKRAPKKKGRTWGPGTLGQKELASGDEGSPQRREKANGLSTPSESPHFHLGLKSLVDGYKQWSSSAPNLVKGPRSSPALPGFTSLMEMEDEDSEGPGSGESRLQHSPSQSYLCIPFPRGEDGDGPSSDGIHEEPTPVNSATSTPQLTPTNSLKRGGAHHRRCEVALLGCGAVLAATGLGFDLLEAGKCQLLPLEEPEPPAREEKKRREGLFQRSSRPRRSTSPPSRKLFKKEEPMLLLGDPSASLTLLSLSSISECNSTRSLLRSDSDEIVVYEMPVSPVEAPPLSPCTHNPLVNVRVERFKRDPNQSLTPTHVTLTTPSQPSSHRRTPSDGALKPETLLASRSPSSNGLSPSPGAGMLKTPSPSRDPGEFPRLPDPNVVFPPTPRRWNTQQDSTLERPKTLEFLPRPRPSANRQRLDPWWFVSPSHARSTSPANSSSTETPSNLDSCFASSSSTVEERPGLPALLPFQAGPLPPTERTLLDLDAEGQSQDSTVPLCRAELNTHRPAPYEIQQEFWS

cSRC(h) = cSRC(h) (Homo sapiens, UniProt P12931)
PKG1β(h) = molecular target: T2, PKG1β(h) (Homo sapiens, UniProt Q13976)
T2 sequence (Q13976 1-686 isoform Q13976-2): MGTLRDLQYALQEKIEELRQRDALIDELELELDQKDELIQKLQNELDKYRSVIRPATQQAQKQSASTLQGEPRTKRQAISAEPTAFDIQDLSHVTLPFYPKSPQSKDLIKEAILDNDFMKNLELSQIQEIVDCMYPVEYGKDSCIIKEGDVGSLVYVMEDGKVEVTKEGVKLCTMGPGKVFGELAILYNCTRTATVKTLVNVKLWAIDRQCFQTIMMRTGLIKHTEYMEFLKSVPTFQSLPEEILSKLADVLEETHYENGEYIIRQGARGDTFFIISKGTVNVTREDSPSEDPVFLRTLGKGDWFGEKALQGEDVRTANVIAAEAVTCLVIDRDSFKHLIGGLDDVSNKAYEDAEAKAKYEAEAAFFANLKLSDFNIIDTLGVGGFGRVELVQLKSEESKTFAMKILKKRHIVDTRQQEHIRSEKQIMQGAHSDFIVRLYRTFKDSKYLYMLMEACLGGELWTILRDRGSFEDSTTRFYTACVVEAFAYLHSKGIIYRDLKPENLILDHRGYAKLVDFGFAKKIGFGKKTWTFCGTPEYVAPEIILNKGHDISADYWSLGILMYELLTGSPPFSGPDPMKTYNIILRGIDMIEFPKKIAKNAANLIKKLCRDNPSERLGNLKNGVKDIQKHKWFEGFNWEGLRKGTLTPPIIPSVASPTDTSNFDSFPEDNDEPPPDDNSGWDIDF

EphA5(h) = EphA5(h) (Homo sapiens, UniProt P54756)
Sequence of EphA5(h) (P54756 25-1037): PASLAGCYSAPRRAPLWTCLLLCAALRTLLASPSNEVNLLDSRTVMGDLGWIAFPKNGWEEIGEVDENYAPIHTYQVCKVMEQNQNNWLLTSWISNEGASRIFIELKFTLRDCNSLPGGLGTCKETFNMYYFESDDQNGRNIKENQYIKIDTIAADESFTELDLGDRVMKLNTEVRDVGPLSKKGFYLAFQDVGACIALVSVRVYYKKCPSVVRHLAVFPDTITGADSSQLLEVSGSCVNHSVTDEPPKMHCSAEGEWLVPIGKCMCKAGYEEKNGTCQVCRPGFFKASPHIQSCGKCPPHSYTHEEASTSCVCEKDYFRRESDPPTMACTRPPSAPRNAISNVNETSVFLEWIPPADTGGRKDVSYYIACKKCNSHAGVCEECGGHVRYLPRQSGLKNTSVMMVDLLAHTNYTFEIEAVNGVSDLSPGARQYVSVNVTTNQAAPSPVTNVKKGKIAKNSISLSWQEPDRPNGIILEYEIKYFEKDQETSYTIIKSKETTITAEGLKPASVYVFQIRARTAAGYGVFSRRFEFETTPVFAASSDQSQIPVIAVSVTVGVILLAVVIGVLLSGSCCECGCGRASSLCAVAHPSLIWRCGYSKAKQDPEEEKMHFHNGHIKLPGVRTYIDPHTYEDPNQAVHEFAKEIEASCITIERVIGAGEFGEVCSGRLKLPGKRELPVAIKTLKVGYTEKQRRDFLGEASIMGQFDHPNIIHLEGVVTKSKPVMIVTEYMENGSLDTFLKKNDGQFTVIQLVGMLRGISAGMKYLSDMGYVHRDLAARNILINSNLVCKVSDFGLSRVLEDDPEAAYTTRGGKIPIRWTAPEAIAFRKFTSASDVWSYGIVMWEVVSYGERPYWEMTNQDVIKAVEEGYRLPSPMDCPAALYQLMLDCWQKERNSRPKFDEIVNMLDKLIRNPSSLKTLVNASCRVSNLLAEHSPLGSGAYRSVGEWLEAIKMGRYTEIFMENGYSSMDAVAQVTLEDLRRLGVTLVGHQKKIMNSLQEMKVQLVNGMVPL

PKD2(h) = molecular target: T3, PKD2(h) (Homo sapiens, UniProt Q9BZL6)
T3 sequence (Q9BZL6 1-878): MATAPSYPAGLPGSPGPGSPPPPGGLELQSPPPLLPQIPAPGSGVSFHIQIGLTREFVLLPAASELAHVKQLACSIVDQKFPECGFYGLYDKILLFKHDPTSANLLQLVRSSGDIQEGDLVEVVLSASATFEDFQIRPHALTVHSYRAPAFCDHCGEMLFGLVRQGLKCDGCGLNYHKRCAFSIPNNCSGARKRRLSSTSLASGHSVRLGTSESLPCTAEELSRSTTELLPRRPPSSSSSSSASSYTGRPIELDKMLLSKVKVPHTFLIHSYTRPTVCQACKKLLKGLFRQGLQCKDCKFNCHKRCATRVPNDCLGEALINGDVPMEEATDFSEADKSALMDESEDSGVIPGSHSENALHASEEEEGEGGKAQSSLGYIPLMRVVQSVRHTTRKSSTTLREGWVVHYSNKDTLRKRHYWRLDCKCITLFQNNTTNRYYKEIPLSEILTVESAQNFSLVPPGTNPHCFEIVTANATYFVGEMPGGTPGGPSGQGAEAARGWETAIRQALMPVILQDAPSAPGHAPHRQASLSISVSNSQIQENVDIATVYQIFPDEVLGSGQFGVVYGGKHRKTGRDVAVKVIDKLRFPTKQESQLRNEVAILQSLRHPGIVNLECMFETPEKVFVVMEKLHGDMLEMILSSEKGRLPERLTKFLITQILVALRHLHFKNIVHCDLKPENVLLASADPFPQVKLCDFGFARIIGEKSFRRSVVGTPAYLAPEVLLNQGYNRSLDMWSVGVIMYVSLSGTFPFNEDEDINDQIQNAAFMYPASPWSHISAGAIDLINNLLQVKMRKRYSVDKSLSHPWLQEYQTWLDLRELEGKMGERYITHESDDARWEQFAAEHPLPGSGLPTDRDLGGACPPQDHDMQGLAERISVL

Substance | % activity (EphB1(h)) [%] | % activity (MLK1(h)) [%] | % activity (cSRC(h)) [%] | % activity (PKG1β(h)) [%] | % activity (EphA5(h)) [%] | % activity (PKD2(h)) [%] | activity at 100 µM (EphB1(h)) [%] | activity at 100 µM (MLK1(h)) [%] | activity at 100 µM (cSRC(h)) [%] | activity at 100 µM (PKG1β(h)) [%] | activity at 100 µM (EphA5(h)) [%] | activity at 100 µM (PKD2(h)) [%]
YARAAARQARAKALNRQLGVA (Mammalian) [MMI-0200] | 95 | 84 | 32 | 57 | 123 | 78 |  |  |  |  |  | 
H-YARAAARQARAKALARQLGVAA-OH [MMI-0100] |  |  |  |  |  |  | 99 | 77 | 70 | 71 | 110 | 84
HRRIKAWLKKIKALARQLGVAA (Mammalian) [MMI-0500] | 37 | 43 | 30 | 24 | 42 | 10 |  |  |  |  |  | 
